Data set [1] concerns the molecule itself. As to the kind of experiment: SDS-resistant oligomers on SDS-PAGE and Western blot; striatal synaptosomes of HA-DAT knock-in mice with vehicle, AIM-100 or ALs (20-40 μM, 2 h, 37 °C) in KRHG or KRHG/F12 (1:1); lysates in Laemmli buffer 30 min 42 °C; DAT antibody. On the technique in general: A western blot detects proteins with antibodies after separation by electrophoresis.

Data set [2] deals with the molecule itself. As to the kind of experiment: SDS-resistant oligomers on SDS-PAGE and Western blot; PAE cells stably expressing the tagged transporter, incubated with vehicle (DMSO), AIM-100 or ALs (20 μM, 2 h, 37 °C), with or without cocaine; lysis in TGH with 1% deoxycholate; Laemmli buffer 5 min 95 °C; 7.5% SDS-PAGE; GFP antibody.

B1: endogenous HA-DAT of HA-DAT knock-in mice (natural protein, mouse, UniProt Q61327 1-619, looked up)
chain: MSKSKCSVGPMSSVVAPAKEPNAVGPREVELILVKEQNGVQLTNSTLINPPQTPVEVQERETWSKKIDFLLSVIGFAVDLANVWRFPYLCYKNGGGAFLVPYLLFMVIAGMPLFYMELALGQFNREGAAGVWKICPVLKGVGFTVILISFYVGFFYNVIIAWALHYFFSSFTMDLPWIHCNNTWNSPNCSDAHSSNSSDGLGLNDTFGTTPAAEYFERGVLHLHQSRGIDDLGPPRWQLTACLVLVIVLLYFSLWKGVKTSGKVVWITATMPYVVLTALLLRGVTLPGAMDGIRAYLSVDFYRLCEASVWIDAATQVCFSLGVGFGVLIAFSSYNKFTNNCYRDAIITTSINSLTSFSSGFVVFSFLGYMAQKHNVPIRDVATDGPGLIFIIYPEAIATLPLSSAWAAVFFLMLLTLGIDSAMGGMESVITGLVDEFQLLHRHRELFTLGIVLATFLLSLFCVTNGGIYVFTLLDHFAAGTSILFGVLIEAIGVAWFYGVQQFSDDIKQMTGQRPNLYWRLCWKLVSPCFLLYVVVVSIVTFRPPHYGAYIFPDWANALGWIIATSSMAMVPIYATYKFCSLPGSFREKLAYAITPEKDRQLVDRGEVRQFTLRHWLLV
notes: also called endogenous mouse HA-DAT; source: endogenous, striatal synaptosomes from HA-DAT knock-in mice, in lysate
The stoichiometry N is a count of units in the complex or per binding partner. B1: the “stoichiometry N” value in data set [1] stood at 3.

B2: YFP- and HA-epitope tagged dopamine transporter (YFP-HA-DAT), wild type (natural protein, human, UniProt Q01959 1-620, looked up)
chain: MSKSKCSVGLMSSVVAPAKEPNAVGPKEVELILVKEQNGVQLTSSTLTNPRQSPVEAQDRETWGKKIDFLLSVIGFAVDLANVWRFPYLCYKNGGGAFLVPYLLFMVIAGMPLFYMELALGQFNREGAAGVWKICPILKGVGFTVILISLYVGFFYNVIIAWALHYLFSSFTTELPWIHCNNSWNSPNCSDAHPGDSSGDSSGLNDTFGTTPAAEYFERGVLHLHQSHGIDDLGPPRWQLTACLVLVIVLLYFSLWKGVKTSGKVVWITATMPYVVLTALLLRGVTLPGAIDGIRAYLSVDFYRLCEASVWIDAATQVCFSLGVGFGVLIAFSSYNKFTNNCYRDAIVTTSINSLTSFSSGFVVFSFLGYMAQKHSVPIGDVAKDGPGLIFIIYPEAIATLPLSSAWAVVFFIMLLTLGIDSAMGGMESVITGLIDEFQLLHRHRELFTLFIVLATFLLSLFCVTNGGIYVFTLLDHFAAGTSILFGVLIEAIGVAWFYGVGQFSDDIQQMTGQRPSLYWRLCWKLVSPCFLLFVVVVSIVTFRPPHYGAYIFPDWANALGWVIATSSMAMVPIYAAYKFCSLPGSFREKLAYAIAPEKDRELVDRGEVRQFTLRHWLKV
notes: dopamine transporter (DAT), human; also called WT YFP-HA-DAT; wtDAT; source: PAE cells, stably expressing, in intact cells and in lysate
B2: in data set [2], the “stoichiometry N” value was determined as 3.

Values taken from PMC8010718, “Direct coupling of oligomerization and oligomerization-driven endocytosis of the dopamine transporter to its conformational mechanics and activity” (The Journal of Biological Chemistry, 2021).
